# According to patent US20220227846A1 (TEMPLE UNIVERSITY OF THE COMMONWEALTH SYSTEM OF HIGHER …, published 2022):
# Experiments:
# Assay in all cases: SPR, calculated KD (Qdat software)
# [1] = target: T1, Aβ42 oligomers (ADDLs/globulomers) (UniProt P05067 672-713)
# T1 construct: domain: Aβ42; Oligomeric conformer of Aβ42; also called amyloid beta derived diffusible ligands
# Method: (§1) MAb binding to Aβ42 conformers was measured by surface plasma resonance (SPR) (Table 1). Calculated affinity constants (KD) were obtained using Qdat software. […] The 3H3 binding data is qualitatively most similar to the 4G1 and 6E10 mAbs. 4A6 and 2C10 preferentially bind Aβ fibrils.
# Aβ42 fibrils = target: T2, Aβ42 fibrils (UniProt P05067 672-713)
# T2 construct: domain: Aβ42; Fibrillar conformer of Aβ42; also called Aβ fibrils
# Method: as §1
# [2] = target: T3, C-terminal biotinylated Aβ42 monomers (UniProt P05067 672-713, C-terminal biotin)
# T3 construct: domain: Aβ42; also called CTB mono
# Method: as §1
# [3] = target: T4, N-terminal biotinylated Aβ42 monomers (UniProt P05067 672-713, N-terminal biotin)
# T4 construct: domain: Aβ42; also called NTB mono
# Method: as §1
# [4] = target: T5, C-terminal biotinylated Aβ42 ADDLs/globulomers (UniProt P05067 672-713, C-terminal biotin)
# T5 construct: domain: Aβ42; also called CTB oligo
# Method: as §1
# T3 sequence (P05067 672-713 limits assumed): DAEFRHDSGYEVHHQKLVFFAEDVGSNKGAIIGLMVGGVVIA
# T2 sequence (P05067 672-713 limits assumed): as above
# T1 sequence (P05067 672-713 limits assumed): as above
# T5 sequence (P05067 672-713 limits assumed): as above
# T4 sequence (P05067 672-713 limits assumed): as above
binder,measurement,setting,value
"ALZ.4A6 (antibody, V domains shown, Human mAb cloned from hybridomas made from B cells of a patient with Alzheimer's Disease) VH: QVQLVQSGAEVKKPGASMRVSCKASGYTYTAYYIHWMRQAPGQGLEWMGWINPHIGSTNYAEKFRGRVTLTRDTSIKTAYMDLDRLTSDDTAIYYCARVRAPRSISGTLNSYGMDVWGQGTTVAVSS VL: DIVMTQSPSSLSASVGDRVVITCRASLRIGTFLNWYQQTQGRAPKLLVSSASTLQSGVPSRFSGSGSGTDFTLTINSLQPEDFATYYCQQSYSTTWTFGQGTKVELK",Kd,[1],1300 nM
same,Kd,Aβ42 fibrils,11 nM
same,Kd,[2],16 nM
"ALZ.4G1 (antibody, V domains shown, Human mAb cloned from hybridomas made from B cells of a patient with Alzheimer's Disease) VH: EEHLVESGGALVQPGGSLRLSCEASGFTFRSYWMTWVRQAPGKGLEWLANIKQDGSDYYYVDSVKGRFTISRDNAKNTLYLQMNNLRADDTAVYFCARDARYRDTTWPQYYFYYFMDVWGKGTTVTVSS VL: DIQLTQSPSSLSASIGDRVTVTCRASQSISNYLNWYQQKPGKAPKLLIYAASNLHTGVPSRFSGSGSGTHFTLTISSLQPEDFATYYCQLSYNNPRTFGPGTTVDIR",Kd,[3],1700 nM
same,Kd,[1],8.8 nM
same,Kd,Aβ42 fibrils,14 nM
same,Kd,[4],11.4 nM
same,Kd,[2],15 nM
"ALZ.3H3 (antibody, V domains shown) VH: QVQLVESGGGVVQPGRSLRLSCAASGFSFSTYGMHWVRQAPGKGLEWVAVISYDGSRKYYADTGKGRFTISRDNSKNTLYLEMNGLRAEDTAVYHCAKDLRRELGFGNRDYHYYGMDAWGQGTTVTVSS VL: LTQPRSVSGSPGQSVTMSCTGTNSDIGGYNYVSWYQQHPGKAPKLMIYDVYKRPSGVPDRFSGSKSGNTASLTISGLQAEDEADYYCCSYAGTNNLIFGGGTKLTVLG",Kd,[3],240 nM
same,Kd,[1],40 nM
same,Kd,Aβ42 fibrils,2.1 nM
same,Kd,[4],35 nM
same,Kd,[2],3.4 nM
